# Test results reported in the supplement of paper PMC9112550, “Optimization of the antimicrobial peptide Bac7 by deep mutational scanning” (BMC Biology, 2022).
# Tested on: Escherichia coli TOP10
# Experiment: shrunken log2 fold change of peptide-encoding DNA abundance (4.5 h post-induction vs induction); higher = less antimicrobial activity (less host growth inhibition)
# Settings: time post-induction: 4.5 h; library: site-saturation at positions 5, 18, 19, 20
# 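Also: peptides expressed intracellularly from a pBAD plasmid library in pooled LB shake-flask culture, induced with 0.3% L-arabinose, DNA abundance read by NGS, three biological replicates, DESeq2 with apeglm shrinkage.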
row,Sequence,shrunken log2 fold change
1,RRIRTRPPRLPRPRPRPINYPRP,-0.502
2,RRIRCRPPRLPRPRPRPWMVPRP,-0.559
3,RRIRHRPPRLPRPRPRPFFSPRP,-0.253
4,RRIRMRPPRLPRPRPRPPDKPRP,1.03
5,RRIRARPPRLPRPRPRPHHRPRP,0.00443
6,RRIRSRPPRLPRPRPRPMDTPRP,0.0136
7,RRIRARPPRLPRPRPRPYVPPRP,-0.114
8,RRIRQRPPRLPRPRPRPLIWPRP,0.855
9,RRIRIRPPRLPRPRPRPCVWPRP,-0.242
10,RRIRSRPPRLPRPRPRPKVLPRP,0.248
11,RRIRWRPPRLPRPRPRPPPMPRP,0.72
12,RRIRRRPPRLPRPRPRPCCSPRP,0.107
13,RRIRKRPPRLPRPRPRPFEAPRP,2.17
14,RRIRVRPPRLPRPRPRPQEQPRP,0.0925
15,RRIRIRPPRLPRPRPRPPQWPRP,0.205
16,RRIRIRPPRLPRPRPRPFIAPRP,-0.719
17,RRIRQRPPRLPRPRPRPCNCPRP,-0.0201
18,RRIRQRPPRLPRPRPRPNIKPRP,-0.558
19,RRIRNRPPRLPRPRPRPIKAPRP,-0.0167
20,RRIRIRPPRLPRPRPRPFTKPRP,-0.173
21,RRIRGRPPRLPRPRPRPHLYPRP,0.155
22,RRIRLRPPRLPRPRPRPFPCPRP,0.0233
23,RRIRGRPPRLPRPRPRPDKPPRP,0.415

row,Sequence,shrunken log2 fold change
1,RRIRKRPPRLPRPRPRPSYIPRP,-0.136
2,RRIRYRPPRLPRPRPRPHPGPRP,-0.727
3,RRIRFRPPRLPRPRPRPFKRPRP,-0.813
4,RRIRARPPRLPRPRPRPDRYPRP,-0.474
5,RRIRFRPPRLPRPRPRPENWPRP,0.0986
6,RRIRFRPPRLPRPRPRPYCCPRP,-0.324
7,RRIRLRPPRLPRPRPRPNVMPRP,-0.0669
8,RRIRMRPPRLPRPRPRPMGKPRP,0.0275
9,RRIRQRPPRLPRPRPRPQSKPRP,-0.574
10,RRIRQRPPRLPRPRPRPNKNPRP,-0.335
11,RRIRMRPPRLPRPRPRPCRRPRP,0.0172
12,RRIRCRPPRLPRPRPRPLMAPRP,0.18
13,RRIRFRPPRLPRPRPRPQIRPRP,-0.231
14,RRIRRRPPRLPRPRPRPYFMPRP,-0.353
15,RRIRTRPPRLPRPRPRPARAPRP,0.786
16,RRIRCRPPRLPRPRPRPSNNPRP,-0.707
17,RRIRKRPPRLPRPRPRPTLAPRP,1.19
18,RRIRQRPPRLPRPRPRPKIAPRP,0.278
19,RRIRGRPPRLPRPRPRPMDCPRP,0.357
20,RRIRMRPPRLPRPRPRPPTPPRP,1.66
21,RRIRHRPPRLPRPRPRPPNQPRP,-0.0151
22,RRIRYRPPRLPRPRPRPTFDPRP,-0.76
23,RRIRCRPPRLPRPRPRPSHAPRP,-0.375

row,Sequence,shrunken log2 fold change
1,RRIRMRPPRLPRPRPRPTDYPRP,0.166
2,RRIRKRPPRLPRPRPRPENQPRP,0.156
3,RRIRFRPPRLPRPRPRPTSVPRP,-0.0668
4,RRIRVRPPRLPRPRPRPFSMPRP,-0.0688
5,RRIRMRPPRLPRPRPRPECDPRP,2.82
6,RRIRPRPPRLPRPRPRPTLLPRP,-0.0649
7,RRIRARPPRLPRPRPRPEIPPRP,0.3
8,RRIRLRPPRLPRPRPRPMLSPRP,0.0192
9,RRIRWRPPRLPRPRPRPLKVPRP,-0.496
10,RRIRIRPPRLPRPRPRPFEFPRP,-0.00107
11,RRIRCRPPRLPRPRPRPPTNPRP,0.248
12,RRIRHRPPRLPRPRPRPPMRPRP,0.747
13,RRIRHRPPRLPRPRPRPIRCPRP,-0.115
14,RRIRKRPPRLPRPRPRPRMYPRP,0.155
15,RRIRLRPPRLPRPRPRPDDEPRP,-0.0861
16,RRIRRRPPRLPRPRPRPNNWPRP,0.612
17,RRIRNRPPRLPRPRPRPSMRPRP,0.000173
18,RRIRNRPPRLPRPRPRPERHPRP,0.204
19,RRIRNRPPRLPRPRPRPQDFPRP,-0.0385
20,RRIRNRPPRLPRPRPRPIAYPRP,-0.0604
21,RRIRMRPPRLPRPRPRPCQTPRP,0.0245
22,RRIRPRPPRLPRPRPRPPCAPRP,0.925
23,RRIRVRPPRLPRPRPRPALSPRP,0.414

row,Sequence,shrunken log2 fold change
1,RRIRVRPPRLPRPRPRPRISPRP,-0.187
2,RRIRIRPPRLPRPRPRPAEVPRP,-0.041
3,RRIRFRPPRLPRPRPRPWTVPRP,-0.0388
4,RRIRNRPPRLPRPRPRPWMHPRP,-0.228
5,RRIRWRPPRLPRPRPRPTVGPRP,0.468
6,RRIRMRPPRLPRPRPRPPNIPRP,-0.113
7,RRIRMRPPRLPRPRPRPIMAPRP,-0.0196
8,RRIRWRPPRLPRPRPRPFHPPRP,-0.138
9,RRIRPRPPRLPRPRPRPKQQPRP,0.214
10,RRIRWRPPRLPRPRPRPAVTPRP,0.599
11,RRIRHRPPRLPRPRPRPDDQPRP,-0.0481
12,RRIRLRPPRLPRPRPRPRLCPRP,0.35
13,RRIRIRPPRLPRPRPRPNYWPRP,-0.728
14,RRIRKRPPRLPRPRPRPMNSPRP,-0.0163
15,RRIRHRPPRLPRPRPRPWLCPRP,0.111
16,RRIRLRPPRLPRPRPRPNNAPRP,-0.221
17,RRIRLRPPRLPRPRPRPMPGPRP,0.437
18,RRIRWRPPRLPRPRPRPAPGPRP,0.634
19,RRIRIRPPRLPRPRPRPFDYPRP,-0.182
20,RRIRWRPPRLPRPRPRPGFYPRP,0.0692
21,RRIRVRPPRLPRPRPRPRFYPRP,0.112
22,RRIRVRPPRLPRPRPRPMGCPRP,0.0117
